# Assay results taken from article PMC11141937 (2024).
# Assays:
# [1] = target: T1, SARS-CoV-2 WT (WH01) S protein ectodomain (SARS-CoV-2, UniProt P0DTC2 14-1213); experiment: BLI
# [2] = target: S1 of SARS-CoV-2 WT S protein (SARS-CoV-2); experiment: ELISA
# [3] = target: T1, SARS-CoV-2 WT (WH01) S protein …; experiment: ELISA
# [4] = target: RBD of SARS-CoV-2 WT S protein (SARS-CoV-2, UniProt P0DTC2); experiment: ELISA
# WT S2 = experiment: ELISA
# WT NTD = experiment: ELISA
# [5] = target: SARS-CoV-2 WT (WH01) S protein on S-293T cells (SARS-CoV-2, UniProt P0DTC2); experiment: FACS
binder,measurement,setting,value
"O5C2 mAb (antibody, V domains shown) VH: EVQLVESGGGLIQPGGSLRLSCAASGIIVSRNYMSWVRQAPGKGLEWVSILYAGGSSFYAEPVQGRFTVSRDNSKNTLFLEMNSLRVEDTAVYYCARDLQWGIDIWGQGAMVTVSS VL: DIQMTQTPPSLSASVGDRVSISCRASQSTGSWLAWYQQKPGKAPKLLIYKTSSLESGVPSRFSGSGSGTEFTLTISSLQPDDVATYYCQHYDTYSSTFGQGTKVEIK",Kd,[1],0.865 nM
same,EC50,[2],0.017 nM
same,EC50,[3],0.024 nM
same,EC50,[4],0.018 nM
same,EC50,WT S2,> 1000 nM
same,EC50,WT NTD,> 1000 nM
same,EC50,[5],0.177 nM
